Data on one substance can be found in publication PMC9552169, “Mutations Increasing Cofactor Affinity, Improve Stability and Activity of a Baeyer–Villiger Monooxygenase” (ACS Catalysis, 2022).

This series has as its system O=C1CCCCC1. In words: purified protein. As to conditions: table prints only 'substrate', cyclohexanone taken from the standard assay (Figure 2: 100 μM NADPH, 50 mM TrisHCl pH 8.5).

As to “CHMOAcineto (CHMOwt) (Acinetobacter johnsonii)”, the Michaelis-Menten constant (Km) was 6.7 ± 2.0 µM.

By Km is commonly meant the substrate concentration at which the rate is half of its maximum.
